In assay [1] the target is T1, human CD16A-158F expressed on CHO-K1 cells (human, UniProt P08637 17-254).
T1 construct: whole, on cells
Description: flow cytometry, CHO-K1-hCD16A-158F cells, geometric mean. On the technique in general: A flow cytometer gives signals particle by particle.

For assay [2], the target named is T1, human CD16A-158F expressed on CHO-K1 …. Description: flow cytometry on antigen-expressing CHO-K1 cells. As for the experimental part:
(§1) In order to evaluate the binding activity of the chimeric mAbs to human CD16A expressed on cells, cell-based binding assay was employed as followed. […] The antibody dilutions were incubated with 1×10⁵ indicated cells in the 96-well microplate for one hour at 4° C. The antibodies binding to the antigen on the cell surface were detected with PE fluorophore-conjugated anti-human IgG Fc secondary antibodies (ThermoFisher scientific, Cat. No. 12-4998-82) at a dilution rate of 1:1000. Cells were analyzed by flow cytometer LSRFortessa Cell Analyzer (BD Biosciences). Data were analyzed with Flowjo 10.0 software. The graph and statistics analysis were generated with four-parameter nonlinear regression curve fit in Graphpad Prism 9 software.
(§2) CHO-K1 cells stably expressing cynomolgus CD16 were used in the following test.

Assay [3] addresses T2, cynomolgus CD16 expressed on CHO-K1 cells (cynomolgus, UniProt Q8SPW2 17-254).
T2 construct: whole, on cells; also called cyno CD16; CHO-K1-cynoCD16
Put plainly: flow cytometry on antigen-expressing CHO-K1 cells. As for the experimental part:
as §1, §2

Assay [4] concerns the target T3, human CD16A-158V expressed on CHO-K1 cells (human, UniProt P08637 17-254).
T3 construct: whole, on cells; also called hCD16A-158V; CHO-K1-hCD16A-158V
Description: flow cytometry on antigen-expressing CHO-K1 cells. As for the experimental part:
as §1, §2

The target in assay [5] is T4, human GPC3 on HepG2 cells (human, UniProt P51654 25-554).
T4 construct: whole, on cells; also called GPC3-positive HepG2 cells
Description: flow cytometry, HepG2 cells (GPC3 positive), geometric mean.

The target of assay [6] is T2, cynomolgus CD16 expressed on CHO-K1 …. Put plainly: flow cytometry, CHO-K1-cyno CD16 cells, Alexa Fluor 647 anti-human IgG Fc, geometric mean. As for the experimental part: as §1
(§3) The assay was performed following the protocol described above. The antibodies binding to the antigen on the cell surface were detected with Alexa Fluor® 647 AffiniPure™ F(ab′)₂ fragment goat anti-human IgG Fcγ fragment specific secondary antibody (Jackson Immuno Research, Cat. No. 109-606-098) at a dilution rate of 1:2000.

Assay [7] addresses T3, human CD16A-158V expressed on CHO-K1 …. Description: flow cytometry, CHO-K1-hCD16A-158V cells, Alexa Fluor 647 anti-human IgG Fc, geometric mean. As for the experimental part:
as §1, §3

Assay [8] addresses T5, human CD32B expressed on CHO-K1 cells (human, UniProt P31994 43-310).
T5 construct: whole, on cells; also called hCD32B
T5 sequence (looked up): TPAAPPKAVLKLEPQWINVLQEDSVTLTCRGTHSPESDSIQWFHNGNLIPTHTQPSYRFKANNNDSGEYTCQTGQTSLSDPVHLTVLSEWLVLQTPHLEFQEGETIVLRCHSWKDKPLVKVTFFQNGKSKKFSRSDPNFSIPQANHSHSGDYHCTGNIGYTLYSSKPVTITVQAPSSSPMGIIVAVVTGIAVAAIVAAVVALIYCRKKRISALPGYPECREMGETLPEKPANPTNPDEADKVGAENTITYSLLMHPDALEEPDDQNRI
Description: flow cytometry, CHO-K1-hCD32B cells, geometric mean. As for the experimental part: as §1
(§4) To exclude the non-specific binding of the CD16A chimeric antibody to human CD16B and CD32B expressed on cells, cell-based binding assay was performed as described above. Firstly, CHO-K1 cells were stably transferred with one human CD16B spliced isoform hCD16B-NA1 and human CD32B. Then, the cells were incubated with the indicated concentrations of CD16A chimeric antibodies.

Assay [9] deals with T1, human CD16A-158F expressed on CHO-K1 …. Description: flow cytometry, CHO-K1-hCD16A-158F cells, Alexa Fluor 647 anti-human IgG Fc, geometric mean. As for the experimental part: as §1, §3
The target in assay [10] is T3, human CD16A-158V expressed on CHO-K1 …. Put plainly: flow cytometry, CHO-K1-hCD16A-158V cells, geometric mean.
Assay [11] concerns the target T6, human CD16B-NA2 ECD his tag protein (human, UniProt O75015 17-200).
T6 construct: extracellular domain; Bought protein; also called hCD16B-NA2-his; hCD16B-NA2 protein
Put plainly: ELISA, hCD16B-NA2-his coated at 2 ug/mL, OD450. As for the experimental part: In order to determine the binding ability of the chimeric Abs to human CD16A protein, ELISA-based binding assay was performed as followed. […] The mixture was incubated for 1 hour at room temperature (RT). The primary antibody was recognized by a detective antibody against human IgG Fc which was conjugated with horseradish peroxidase (HRP) (Jackson Immuno, Cat. No. 109-035-008). Tetramethylbenzidine (TMB), a substrate of HRP, was added to the wells to visualize the binding signal. After sufficient color development, stop solution was added to the wells. The absorbance of the signal was detected at 450 nm with Envision multilabel plate readers (PerkinElemer). The graph and statistics analysis were generated with four-parameter nonlinear regression curve fit in Graphpad Prism 9 software.
In order to determine the binding ability of the chimeric Abs to human CD16B protein, ELISA binding assay was performed as previously described. Three spliced isoforms of CD16B including human CD16B-NA1 ECD his tag protein (hCD16B-NA1-his, Acro Bio, Cat: No. CDB-H5227), human CD16B-NA2 ECD his tag protein (hCD16B-NA2-his, Acro Bio, Cat: No. CDB-H82Ea) and human CD16B-SH-his protein, were used as the coating antigens at 2 μg/mL.

Assay [12] deals with T7, human CD16B-NA1 expressed on CHO-K1 cells (human, UniProt O75015 17-200).
T7 construct: whole, on cells; also called hCD16B-NA1; CHO-K1-hCD16B-NA1
Description: flow cytometry, CHO-K1-hCD16B-NA1 cells, geometric mean. As for the experimental part: as §1, §4

Assay [13] has as its target T2, cynomolgus CD16 expressed on CHO-K1 …. Put plainly: flow cytometry, CHO-K1-cyno CD16 cells, geometric mean. As for the experimental part: as §1
The assay was performed following the protocol described above.

This is an account of results in US20260242485A1 (LEPU BIOPHARMA, published 2026).

As a reminder, the EC50 (read off the curve) is the concentration that produces a half-maximal response. A higher EC50 (read off the curve) goes with weaker potency. The term EC50 denotes the concentration giving half of the maximal effect. Read a low EC50 as greater potency.

T2 sequence (Q8SPW2 17-254): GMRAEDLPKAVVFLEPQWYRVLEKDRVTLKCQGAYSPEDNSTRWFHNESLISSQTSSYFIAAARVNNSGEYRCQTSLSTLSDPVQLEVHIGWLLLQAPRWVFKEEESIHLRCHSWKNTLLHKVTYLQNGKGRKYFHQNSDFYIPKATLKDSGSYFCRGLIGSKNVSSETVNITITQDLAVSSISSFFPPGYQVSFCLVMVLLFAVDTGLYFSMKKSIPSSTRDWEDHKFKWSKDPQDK
T1 sequence (P08637 17-254): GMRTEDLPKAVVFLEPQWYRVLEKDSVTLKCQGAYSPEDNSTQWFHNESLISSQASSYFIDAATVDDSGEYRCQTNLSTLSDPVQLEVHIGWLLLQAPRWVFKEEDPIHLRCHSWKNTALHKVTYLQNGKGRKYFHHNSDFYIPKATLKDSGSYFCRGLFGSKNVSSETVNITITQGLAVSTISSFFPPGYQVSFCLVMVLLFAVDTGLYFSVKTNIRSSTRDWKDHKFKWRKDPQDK
T3 sequence (P08637 17-254 F176V): as the sequence (P08637 17-254) above, with F160V counted along it
T4 sequence (P51654 25-554 limits assumed): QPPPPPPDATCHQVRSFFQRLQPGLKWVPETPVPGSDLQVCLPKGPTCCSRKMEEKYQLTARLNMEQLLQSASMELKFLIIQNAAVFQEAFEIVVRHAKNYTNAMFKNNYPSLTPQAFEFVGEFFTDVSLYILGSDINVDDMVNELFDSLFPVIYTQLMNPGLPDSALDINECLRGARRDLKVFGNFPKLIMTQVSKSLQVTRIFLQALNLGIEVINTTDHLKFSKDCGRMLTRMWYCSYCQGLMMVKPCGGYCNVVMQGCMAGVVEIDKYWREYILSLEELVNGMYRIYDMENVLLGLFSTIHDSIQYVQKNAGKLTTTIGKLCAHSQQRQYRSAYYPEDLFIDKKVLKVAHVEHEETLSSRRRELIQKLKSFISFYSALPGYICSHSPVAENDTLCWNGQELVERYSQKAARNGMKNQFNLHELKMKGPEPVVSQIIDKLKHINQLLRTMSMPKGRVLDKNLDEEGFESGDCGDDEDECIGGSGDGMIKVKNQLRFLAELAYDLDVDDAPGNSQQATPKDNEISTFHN
T6 sequence (O75015 17-200 N65S limits assumed): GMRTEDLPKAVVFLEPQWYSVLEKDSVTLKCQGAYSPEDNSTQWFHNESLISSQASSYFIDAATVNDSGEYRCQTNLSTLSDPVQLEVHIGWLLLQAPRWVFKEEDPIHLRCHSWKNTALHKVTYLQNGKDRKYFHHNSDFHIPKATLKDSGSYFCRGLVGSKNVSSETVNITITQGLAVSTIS
T7 sequence (O75015 other isoform, or with tags, fused parts or gaps): as the sequence (O75015 17-200 N65S limits assumed) above, with S20R, S49N, N66D, I90V counted along it

B1: 45H6E8-hIgG1 LALAPG (antibody)
heavy: EVQLQQSGAELVRSGASVKLSCTASGFNIKDYYMQWVKQRPEQGLEWIGWIDPENGDTEYAPKFQGKATMTADTSSNTAYLQLSSLTSEDTAVYYCTTGGNYVDWGQGTTLTVSSASTKGPSVFPLAPSSKSTSGGTAALGCLVKDYFPEPVTVSWNSGALTSGVHTFPAVLQSSGLYSLSSVVTVPSSSLGTQTYICNVNHKPSNTKVDKKVEPKSCDKTHTCPPCPAPEAAGGPSVFLFPPKPKDTLMISRTPEVTCVVVDVSHEDPEVKFNWYVDGVEVHNAKTKPREEQYNSTYRVVSVLTVLHQDWLNGKEYKCKVSNKALGAPIEKTISKAKGQPREPQVYTLPPSREEMTKNQVSLTCLVKGFYPSDIAVEWESNGQPENNYKTTPPVLDSDGSFFLYSKLTVDKSRWQQGNVFSCSVMHEALHNHYTQKSLSLSPGK
light: DIVMTQSQKFMSTSVGDRVSITCKASQNVGTAVAWYQQKPGQSPKLLIYSASNRYTGVPDRFTGSGSGTDFTLTISNMQSEDLADYFCQQYSSYPLLTFGAGTNLELKRTVAAPSVFIFPPSDEQLKSGTASVVCLLNNFYPREAKVQWKVDNALQSGNSQESVTEQDSKDSTYSLSSTLTLSKADYEKHKVYACEVTHQGLSSPVTKSFNRGEC
notes: also called 45H6E8 chimeric antibody
Regarding B1, the “EC50 (read off the curve)” value in assay [1] was ~0.5 nM; in assay [6], ~1 nM; in assay [7] it was ~0.4 nM; in assay [9] it was ~0.4 nM; in assay [10] it was ~0.5 nM; in assay [13] it was ~0.7 nM. In addition, the values for the EC50 in [2], in assay [3] and in assay [4] were 0.4 nM, 1.74 nM and 0.36 nM, respectively. In addition, the binding result is “no binding (tested: 100 nM)” in assay [5], “no binding (tested: 100 nM)” in assay [8], “no binding (tested: 20 nM)” in assay [11] and “no binding (tested: 100 nM)” in [12].

B2: P2C47-hIgG1 LALAPG (antibody)
heavy: QVQLVQSGAEVKKPGESLKVSCKASGYTFTSYYMHWVRQAPGQGLEWMGAIEPMYGSTSYAQKFQGRVTMTRDTSTSTVYMELSSLRSEDTAVYYCARGSAYYYDFADYWGQGTLVTVSSASTKGPSVFPLAPSSKSTSGGTAALGCLVKDYFPEPVTVSWNSGALTSGVHTFPAVLQSSGLYSLSSVVTVPSSSLGTQTYICNVNHKPSNTKVDKKVEPKSCDKTHTCPPCPAPEAAGGPSVFLFPPKPKDTLMISRTPEVTCVVVDVSHEDPEVKFNWYVDGVEVHNAKTKPREEQYNSTYRVVSVLTVLHQDWLNGKEYKCKVSNKALGAPIEKTISKAKGQPREPQVYTLPPSREEMTKNQVSLTCLVKGFYPSDIAVEWESNGQPENNYKTTPPVLDSDGSFFLYSKLTVDKSRWQQGNVFSCSVMHEALHNHYTQKSLSLSPGK
light: SYVLTQPSSVSVAPGQTATISCGGHNIGSKNVHWYQQRPGQSPVLVIYQDNKRPSGIPERFSGSNSGNTATLTISGTQAMDEADYYCQVWDNYSVLFGGGTKLTVLGQPKANPTVTLFPPSSEELQANKATLVCLISDFYPGAVTVAWKADGSPVKAGVETTKPSKQSNNKYAASSYLSLTPEQWKSHRSYSCQVTHEGSTVEKTVAPTECS
notes: also called benchmark antibody P2C47
As to B2, the “EC50 (read off the curve)” value in assay [1] is ~0.5 nM; in assay [6], ~1 nM; in [7], ~0.4 nM; in assay [9], ~0.4 nM; in assay [10] it was ~0.5 nM; in [13], ~0.7 nM. Besides, the EC50 in [2] turned out to be 0.57 nM; in assay [3] it was 1.74 nM; in assay [4] it was 0.61 nM. The binding result in assay [5] is reported as “no binding (tested: 100 nM)”; in [8], “no binding (tested: 100 nM)”; in assay [11], “no binding (tested: 20 nM)”; in assay [12] it was “no binding (tested: 100 nM)”.
